# Experimental data as given in patent publication US20020053098.
# Assays:
# [1] = target: herbicide-resistant mutant (Met124His) Arabidopsis AHAS large subunit protein (UniProt P17597)
# [2] = target: wild type Arabidopsis AHAS large subunit protein (pAC774) (UniProt P17597)
# Chain of Arabidopsis AHAS small subunit protein expressed from plasmid F1 (chain, as listed by the source): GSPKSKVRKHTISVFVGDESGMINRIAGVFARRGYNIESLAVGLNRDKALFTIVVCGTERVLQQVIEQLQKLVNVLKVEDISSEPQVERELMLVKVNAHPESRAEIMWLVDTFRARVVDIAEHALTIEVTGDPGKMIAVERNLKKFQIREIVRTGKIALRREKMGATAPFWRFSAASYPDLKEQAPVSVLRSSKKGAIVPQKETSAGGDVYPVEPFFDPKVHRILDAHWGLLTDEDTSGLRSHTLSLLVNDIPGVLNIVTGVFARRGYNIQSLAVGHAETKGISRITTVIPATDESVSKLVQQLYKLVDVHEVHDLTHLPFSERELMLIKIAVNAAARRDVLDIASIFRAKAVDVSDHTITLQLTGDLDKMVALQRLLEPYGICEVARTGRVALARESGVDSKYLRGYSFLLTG
substance,measurement,setting,value
Arabidopsis AHAS small subunit protein expressed from plasmid F1,"AHAS enzymatic activity of the mutant large subunit in vitro, in the presence of small subunit",[1],the enzymatic activity of a herbicide-resistant form of the large subunit is also enhanced
same,"AHAS enzymatic activity of the large subunit in vitro, with increasing amounts of small subunit",[2],small subunit protein enhances the level of enzymatic activity of the catalytic large subunit
